# Assay results taken from patent US10584243B2, “Antithrombotic compounds, methods and uses thereof” (The University of British Columbia, priority 2014, dated 2020).
# Key:
# [1] = mice; intravenous injection; for UHRAs maximum injected dose, maximum tolerated dose not reached; cited from earlier work
# [2] = test system: platelets in human platelet-rich plasma; experiment: Platelet activation by flow cytometry (CD62P); assay type: cell-based; details: highest dose
# Procedure: Blood from healthy consented donors was either collected into 3.8% sodium citrate tube with a blood/anticoagulant ratio of 9:1 or serum tube at Centre for Blood Research, University of British Columbia. The protocol was approved by the University of British Columbia clinical ethical committee and written consent was obtained from each individual donor. Platelet-rich plasma (PRP) was prepared by centrifuging citrated whole blood samples at 150×g for 10 min in an Allegra X-22R™ Centrifuge (Beckman Coulter™, Canada). Serum was prepared by centrifuging the blood collected in serum tube at 1200×g for 30 min one hour after blood collection.
# The level of platelet activation after exposure to polyP inhibitors was quantified by flow cytometry. Ninety microliters of platelet rich plasma (PRP) was incubated at 37° C. with 10 μL of either 10 mg/mL or 20 mg/mL of UHRA, protamine or PEI stock solution (final polymer concentration 1 mg/mL and 2 mg/mL respectively) in PBS. […] The level of platelet activation was analyzed in a BD FACSCanto II flow cytometer (Becton Dickinson™) by gating platelets specific events based on their forward scattering profile (size of individual platelet). Activation of platelets was expressed as the percentage of platelet activation marker CD62-PE fluorescence detected in the 10,000 total events counted. […]
# [3] = molecular target: T1, human fibrinogen (Homo sapiens, UniProt P02671+P02675+P02679); experiment: Fibrin clot turbidity and scanning electron microscopy; details: fibrin polymerization assay
# T1 sequence (P02671 20-644 isoform P02671-2 limits assumed): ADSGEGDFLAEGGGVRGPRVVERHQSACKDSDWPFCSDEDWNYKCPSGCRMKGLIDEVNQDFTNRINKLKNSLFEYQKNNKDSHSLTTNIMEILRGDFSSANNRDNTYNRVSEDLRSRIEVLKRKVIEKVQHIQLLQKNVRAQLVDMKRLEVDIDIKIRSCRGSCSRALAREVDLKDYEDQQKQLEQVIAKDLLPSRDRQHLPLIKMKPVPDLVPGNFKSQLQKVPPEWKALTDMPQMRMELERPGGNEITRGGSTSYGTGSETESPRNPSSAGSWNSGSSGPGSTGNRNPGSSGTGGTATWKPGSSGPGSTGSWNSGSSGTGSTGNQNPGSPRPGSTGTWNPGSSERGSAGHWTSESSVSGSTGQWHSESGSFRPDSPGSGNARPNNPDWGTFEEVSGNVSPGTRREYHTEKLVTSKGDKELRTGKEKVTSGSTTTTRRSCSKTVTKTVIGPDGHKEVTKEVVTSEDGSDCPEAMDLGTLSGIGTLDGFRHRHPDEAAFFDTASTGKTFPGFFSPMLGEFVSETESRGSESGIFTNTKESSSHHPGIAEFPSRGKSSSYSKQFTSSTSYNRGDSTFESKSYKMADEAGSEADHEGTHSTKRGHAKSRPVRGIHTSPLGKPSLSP
# T1 sequence (P02675 45-491 limits assumed): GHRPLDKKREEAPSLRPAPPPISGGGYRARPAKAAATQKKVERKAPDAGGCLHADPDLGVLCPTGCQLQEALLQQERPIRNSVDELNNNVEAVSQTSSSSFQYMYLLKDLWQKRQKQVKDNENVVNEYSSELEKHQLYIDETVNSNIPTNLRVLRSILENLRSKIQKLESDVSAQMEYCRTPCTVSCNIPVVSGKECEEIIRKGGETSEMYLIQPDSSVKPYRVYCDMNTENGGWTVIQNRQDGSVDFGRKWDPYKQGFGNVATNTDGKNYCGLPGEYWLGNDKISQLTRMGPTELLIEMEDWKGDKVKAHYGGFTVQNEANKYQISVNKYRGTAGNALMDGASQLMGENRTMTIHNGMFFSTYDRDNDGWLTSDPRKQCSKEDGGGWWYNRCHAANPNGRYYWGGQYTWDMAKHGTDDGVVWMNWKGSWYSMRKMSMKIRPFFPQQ
# T1 sequence (P02679 27-437 isoform P02679-2 limits assumed): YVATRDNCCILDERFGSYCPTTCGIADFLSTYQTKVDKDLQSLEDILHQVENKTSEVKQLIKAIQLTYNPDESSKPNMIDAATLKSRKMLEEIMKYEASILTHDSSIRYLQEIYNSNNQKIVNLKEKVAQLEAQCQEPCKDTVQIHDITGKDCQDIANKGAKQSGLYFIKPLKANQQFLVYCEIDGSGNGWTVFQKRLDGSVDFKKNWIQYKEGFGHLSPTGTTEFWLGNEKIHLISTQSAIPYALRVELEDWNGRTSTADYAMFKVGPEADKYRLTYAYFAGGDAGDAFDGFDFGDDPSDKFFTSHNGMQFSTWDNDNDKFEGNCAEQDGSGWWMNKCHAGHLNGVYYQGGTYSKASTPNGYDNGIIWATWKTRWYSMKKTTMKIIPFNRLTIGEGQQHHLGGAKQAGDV
# Procedure: The morphology of clots formed in presence of UHRA and protamine was determined by scanning electron microscopy (SEM) analysis. All samples for SEM were randomly coded and blinded to the individual performing imaging and analysis to avoid bias. Fibrin clots were formed in sterile round-bottomed 5 mL polypropylene tubes (BD Falcon) by mixing purified human fibrinogen (200 μL, 3 mg/mL) in 20 mM HEPES (pH 7.4 and 150 mM NaCl) with 2.5 NIHU/mL thrombin and 3 mM CaCl2 and UHRA or protamine (in HEPES buffer) (0-500 μg/mL). All concentrations are final. Control clot was prepared in the absence of UHRA or protamine. After incubating the solution for 1 hour at 37° C., clots were immediately fixed using karnovsky fixative (2.5% glutaraldehyde and 4% formaldehyde) and repeatedly washed with 0.1 M sodium cacodylate buffer (pH=7.4) followed by post-fixation with 1% v/v osmium tetroxide. The samples were washed three times with distilled water and then dehydrated with gradient ethanol series (20-95% v/v). […] Fiber diameters of all clots were measured with image analysis software package ImageJ™ (National Institutes of Health, USA). Fiber diameter (n=30) from 8 separate areas of each clot was measured and used for calculating the average fiber size formed.
substance,measurement,setting,value
protamine sulfate,dose tolerated (up to),[1],up to 20 mg/kg
same,platelet activation (CD62P expression),[2],about 30%
same,final turbidity (A405) of fibrin clots,[3],elevated final turbidity
